Assays:
[1] = test system: A549 human lung carcinoma cells; assay: Intracellular fluorescence by flow cytometry; assay type: cell-based
Method: The cellular uptake of 1 was studied using a range of cell lines with different expression levels of MMP-2, namely the MMP-2-overexpressed A549 human lung carcinoma cells[73] and U-87 MG human glioblastoma cells,[74] as well as the low MMP-2-expressed HeLa human cervical carcinoma cells[75] and HEK-293 human embryonic kidney normal cells.[76] The cells were incubated with 1 (2 μM) in a serum-free medium for 1 h and then in the neat medium for a further 6 h to provide sufficient time for enzymatic cleavage. […] Similar results were obtained by flow cytometry (Figure 5b). The quantified fluorescence intensity for A549 cells was 3.8-fold that for HEK-293 cells. […] After subsequent cleavage of the remaining GFLG linker by the intrinsic cathepsin B inside the cells, the probe was activated favorably, leading to higher intracellular fluorescence intensity.
The cells were pretreated with SB-3CT (10 μM) and/or CA-074 Me (25 μM) or simply the neat medium for 2 h, followed by incubation with 1 (2 μM) for a further 1 h. […] The fluorescence images of the cells under all these conditions were captured using a confocal laser scanning microscope. […] For the cells with pretreatment with both inhibitors, fluorescence due to 1 could hardly be seen. Similarly, for the cells being incubated with 14, the intracellular fluorescence was negligible. […]
Confocal Fluorescence Microscopic Studies […]

[2] = Stability in PBS and cathepsin B working buffer without enzymes (absorption/fluorescence spectra); assay type: physicochemical; settings: 1 μM, PBS pH 7.4 or buffer pH 5.0 (25 mM NaOAc, 1 mM EDTA, 500 μM GSH), 0.1% Tween 80, 37 °C, 25 h
skin of nude mice = assay: In vivo photodynamic effect on skin; settings: intravenous 20 nmol
Method: The mice were first intravenously injected with either 1 or 6 (20 nmol) in 200 μL of distilled water containing 3% DMSO and 0.5% Tween 80 (v/v). The whole-body fluorescence images of the mice were monitored using an infrared imaging system over a period of 24 h.
At 6 h post-injection of 1 or 6, the mice were irradiated with the aforementioned laser source (680 nm, 0.3 W cm^–2) on a region of the skin (marked in Figure 8d) for 10 min, which were the conditions used for in vivo PDT as described above. The appearance of the irradiated region was then examined after 24 h. […] The skin tissues of these mice were then harvested and examined using the TUNEL assay.
Further evidence was obtained by the H&E staining of these skin tissues.
Female Balb/c nude mice (20–25 g) were injected with a solution of 1 or 6 (20 nmol) in 200
μL of distilled water containing 3% DMSO and 0.5% Tween 80 (v/v) through the tail vein.
vivo fluorescence imaging was performed before and after the injection at different time points
up to 24 h with an Odyssey infrared imaging system (excitation wavelength = 680 nm, emission
wavelength ≥ 700 nm). The images were digitized and analyzed using an Odyssey imaging
Three mice were used for each comp ound. To study the
photodynamic effect of these two compounds on the skin of the mice, a region of the skin was
illuminated with a diode laser (Biolitec Ceralas) at 680 nm operated at 0.24 W at 6 h post -
injection of these compounds. Illumination on a circu lar spot with a diameter of 1.0 cm (fluence
rate = 0.3 W cm-2) for 10 min led to a total fluence of 180 J cm–2. After 24 h, the mice were
sacrificed, and then the skin tissues were harvested. They were fixed with 4%
paraformaldehyde, dehydrated in an alcohol series, mixed with solutions of xylene and paraffin,
and then embedded in paraffin. The tissue sections were prepared by a Leica RM2235
microtome. After the H&E staining, the tissues were examined with a Nikon Eclipse Ni-E
upright fluorescence microscope. For the TUNEL staining assay, the skin tissues were dewaxed
and rehydrated in an alcohol series and then incubated with a Proteinase K solution (20 μg mL-
1) at room temperature for 30 min. After being rinsed with PBS three times, the tissue slides
were stained with 50 μL of Nucleotide Mix (a mixture of terminal deoxynucleotidyl transferase
and cyanine 3-labeled deoxyuridine triphosphate) of the one -step TUNEL assay kit (Beyotime,
Shanghai, China), and then the nuclei were stained with Hochest 33342 (10 μM) for 1 h at
room temperature. After being rinsed with PBS for three times, the tissue slides were examined
with a Zeiss LSM 880 NLO laser scanning microscope equipped with two solid-state 405 and
561 nm lasers. Hoechst 33342 was excited at 405 nm and its fluorescence was monitored at
410−500 nm, while the TUNEL staining cyanine 3 dye was excited at 561 nm and its
fluorescence was monitored at 570−620 nm.

[3] = with laser irradiation (680 nm, 0.3 W cm-2, 10 min), 24 h after

Structure (SMILES): CCN(CC)c1ccc2nc3ccc(/N=N/c4ccc(N(C)CCCNC(=O)OC[C@@H]5[C@@H]6CCc7nnn(CC(=O)NCCCC[C@@H]8NC(=O)CNC(=O)[C@H](CCCCN)NC(=O)[C@H](CCCNC(=N)N)NC(=O)[C@H](C(C)C)NC(=O)CNC(=O)[C@H](CC(C)C)NC(=O)[C@@H]9CCCN9C(=O)[C@H](CCCCN)NC(=O)[C@@H](N)CSCc9cc(COc%10ccc(C%11=C%12C(C)=C(I)C(/C=C/c%13ccc(OCCOCCOCCOC)cc%13)=[N+]%12[B-](F)(F)n%12c(/C=C/c%13ccc(OCCOCCOCCOC)cc%13)c(I)c(C)c%12%11)cc%10)cc(c9)CSC[C@@H](C(N)=O)NC(=O)[C@H](CCCCN)NC(=O)[C@H](CCCCN)NC(=O)CNC(=O)[C@H](CC(C)C)NC(=O)[C@H](Cc9ccccc9)NC(=O)CNC(=O)[C@H](CCCCN)NC(=O)CNC8=O)c7CC[C@@H]65)cc4)cc3[n+](-c3ccccc3)c2c1 [compound 1]
- intracellular fluorescence intensity, A549 relative to HEK-293 cells ([1]; 2 μM, 1 h in serum-free medium, then 6 h in neat medium, three independent experiments): 3.8 fold
- intracellular fluorescence intensity, untreated cells relative to cells pretreated with the two inhibitors ([1]; A549, 2 μM 1 h + 6 h, SB-3CT (10 μM) and CA-074 Me (25 μM) 2 h pretreatment): 5.6 fold
- stability in the absence of enzymes [2]: stable
- appearance of irradiated skin region after 24 h (skin of nude mice; laser 680 nm, 0.3 W cm-2, 10 min at 6 h post-injection): no noticeable change
- H&E staining of skin tissue (skin of nude mice; [3]): virtually intact
- TUNEL assay of skin tissue (skin of nude mice; [3]): negligible
- H&E staining of skin tissue (skin of nude mice; without laser irradiation): virtually intact
- TUNEL assay of skin tissue (fluorescence intensity) (skin of nude mice; without laser irradiation): negligible

Source: publication PMC10080691, “Enzyme-Responsive Double-Locked Photodynamic Molecular Beacon for Targeted Photodynamic Anticancer Therapy” (Journal of the American Chemical Society, 2023)
